The record followed here is publication PMC4551322 (Molecular Biology of the Cell, 2015).

The data set deals with the molecule itself. The data set can be described thus: velocity sedimentation assay.

B1: Drp1 K38A (enzyme)
chain: MEALIPVINKLQDVFNTVGADIIQLPQIVVVGTQSSGASSVLESLVGRDLLPRGTGIVTRRPLILQLVHVSQEDKRKTTGEENGVEAEEWGKFLHTKNKLYTDFDEIRQEIENETERISGNNKGVSPEPIHLKIFSPNVVNLTLVDLPGMTKVPVGDQPKDIELQIRELILRFISNPNSIILAVTAANTDMATSEALKISREVDPDGRRTLAVITKLDLMDAGTDAMDVLMGRVIPVKLGIIGVVNRSQLDINNKKSVTDSIRDEYAFLQKKYPSLANRNGTKYLARTLNRLLMHHIRDCLPELKTRINVLAAQYQSLLNSYGEPVDDKSATLLQLITKFATEYCNTIEGTAKYIETSELCGGARICYIFHETFGRTLESVDPLGGLNTIDILTAIRNATGPRPALFVPEVSFELLVKRQIKRLEEPSLRCVELVHEEMQRIIQHCSNYSTQELLRFPKLHDAIVEVVTCLLRKRLPVTNEMVHNLVAIELAYINTKHPDFADACGLMNNNIEEQRRNRLARELPSAVSRDKVASGGGGVGDGVQEPTTGNWRGMLKTSKAEELLAEEKSKPIPIMPASPQKGHAVNLLDVPVPVARKLSAREQRDCEVIERLIKSYFLIVRKNIQDSVPKAVMHFLVNHVKDTLQSELVGQLYKSSLLDDLLTESEDMAQRRKEAADMLKALQGASQIIAEIRETHLW
As for B1, the binding result is recorded as “binds”.
